Measurements reported in article PMC12203670, “MTX2 facilitates PKM2 tetramerization to promote cardiac glucose metabolism and protects the heart against ischemia/reperfusion injury” (Theranostics, 2025).
Several values for one entry are separate records, joined by “and”; a condition that tells them apart may be missing. Equal values may be shown once.

Molecular target: the molecule itself
Assay: cross-linking; glutaraldehyde cross-linking, Western blot of PKM2 oligomers; Mtx2 KO H9C2 cells overexpressing MTX2 mutants, H/R

B1: PKM2 in Mtx2 KO H9C2 cells (cross-linking) (enzyme)
chain: not shown
notes: pyruvate kinase PKM, splice isoform M2; also called dimeric PKM2; source: Mtx2 KO H9C2 cells overexpressing MTX2 mutants, H/R
  stoichiometry N: 2 and 4
